Experimental data published in the Immune Epitope Database (IEDB).

These sequences were tested against HLA-A*01:01 (assay: IEDB peptide-MHC binding, purified MHC/competitive/radioactivity; ≥ and ≤ were set here for values at or beyond the usual limits of such assays). Conditions: source organism: Human papillomavirus 16.
Sequence ETTDLYCY has an IC50 of 320 nM. In the case of ISEYRHYCY, the IC50 is reported as 49 nM. YSKISEYRHY gave an IC50 of 147 nM.

These sequences were tested against HLA-A*03:01 in the same assay as above. Conditions: source organism: Human papillomavirus 16.
AMFQDPQER showed an IC50 of 290 nM. With HLDKKQRFH the IC50 was 68 nM. LLIRCINCQK showed an IC50 of 92 nM.

These sequences were tested against HLA-A*11:01 in the same assay as above. Conditions: source organism: Human papillomavirus 16.
Sequence AMFQDPQER has an IC50 of 12 nM. AVCDKCLK showed an IC50 of 496 nM. DIILECVYCK showed an IC50 of 280 nM. With FQDPQERPRK the IC50 was 453 nM. In the case of GIVCPICSQK, the IC50 is reported as 98 nM. GTTLEQQYNK gave an IC50 of 6 nM. IILECVYCK showed an IC50 of 125 nM. In the case of ISEYRHYCY, the IC50 is reported as 166 nM. In the case of IVYRDGNPY, the IC50 is reported as 21 nM. Work on LLIRCINCQK yielded an IC50 of 24 nM. For TTLEQQYNK, the IC50 was 6 nM.

These sequences were tested against HLA-A*24:02 in the same assay as above. Conditions: source organism: Human papillomavirus 16.
Work on CYSLYGTTL yielded an IC50 of 137 nM. Sequence FYSRIREL has an IC50 of 461 nM. RAHYNIVTF was tested, and the IC50 was 290 nM. Work on RFHNIRGRW yielded an IC50 of 220 nM. VYDFAFRDL gave an IC50 of 360 nM.

Each sequence was assayed against HLA-A*01:01 (assay: IEDB peptide-MHC binding, purified MHC/competitive/radioactivity; filed as Kd, often an IC50 or EC50 that approximates it; ≥ and ≤ were set here for values at or beyond the usual limits of such assays). Conditions: source organism: Human papillomavirus 16.
With EIDGPAGQA the Kd was 3240 nM. HVDIRTLED gave a Kd of 3760 nM. QAEPDRAHY gave a Kd of 2790 nM. TTDLYCYEQ showed a Kd of 3760 nM.

Each sequence was assayed against HLA-A*03:01 in the same assay as above. Conditions: source organism: Human papillomavirus 16.
IILECVYCK was tested, and the Kd was 3700 nM. In the case of SLYGTTLEQ, the Kd is reported as 3750 nM.

Each sequence was assayed against HLA-A*11:01 in the same assay as above. Conditions: source organism: Human papillomavirus 16.
For QQLLRREVY, the Kd was 1190 nM.

What follows are sequences tested against HLA-A*24:02 in the same assay as above. Conditions: source organism: Human papillomavirus 16.
LLRREVYDF gave a Kd of 4780 nM. MHQKRTAMF gave a Kd of 4490 nM.
